Changes are numbered by the printed parent chain. Values joined by “and” are separate entries in the source; they are usually repeats but may differ in a detail not shown here. Equal entries are not always repeated. Values belong to the molecule of their own block, whether it stands above or below them.
Legend:
[1] = biological target: His tagged A1 domain of human von Willebrand factor (residues 499-729), expressed in E. coli (human) (UniProt P04275); test: calculated from koff, DELFIA kinetics on plate-coated His-A1, 37 °C
[2] = biological target: His tagged A1 domain of human von Willebrand factor (residues 499-729), expressed in E. coli (human) (UniProt P04275); test: ratio of the kinetic constants (row printed as 'kon/koff'), DELFIA, 37 °C
[3] = biological target: His tagged A1 domain of human von Willebrand factor (residues 499-729), expressed in E. coli (human) (UniProt P04275); test: homologous competition with Eu-NMC-4 chimera on plate-coated His-A1, DELFIA, Cheng-Prusoff, n = 4
[4] = biological target: His tagged A1 domain of human von Willebrand factor (residues 499-729), expressed in E. coli (human) (UniProt P04275); test: equilibrium binding (Scatchard), Eu-labelled antibody on direct-coated His-A1, DELFIA, 37 °C, n = 10
[5] = biological target: His tagged A1 domain of human von Willebrand factor (residues 499-729), expressed in E. coli (human) (UniProt P04275); test: homologous competition with 100 pM Eu-NMC-4 chimera on plate-coated human His-A1, DELFIA, Cheng-Prusoff
[6] = biological target: His tagged A1 domain of human von Willebrand factor (residues 499-729), expressed in E. coli (human) (UniProt P04275); test: DELFIA competitive binding (time-resolved fluorescence): Eu-NMC-4 chimera at 100 pM on wells coated with His-hA1, unlabelled competitor antibody varied (homologous competition)
[7] = biological target: His tagged A1 domain of human von Willebrand factor (residues 499-729), expressed in E. coli (human) (UniProt P04275); test: competition with 100 pM Eu-NMC-4 chimera on plate-coated human His-A1, DELFIA, Cheng-Prusoff
[8] = biological target: purified human von Willebrand factor (vWF) (human) (UniProt P04275); test: cell-based or functional assay
[9] = biological target: His tagged A1 domain of human von Willebrand factor (residues 499-729), expressed in E. coli (human) (UniProt P04275); test: DELFIA competitive binding format (time-resolved fluorescence): Eu-NMC-4 chimera at 100 pM on wells coated with His-hA1, unlabelled AJW200 varied; EC50 of the enhancement of Eu-NMC-4 binding
[10] = biological target: T1, purified human von Willebrand factor (vWF) (human, UniProt P04275 764-2813); test: cell-based or functional assay
[11] = biological target: T1, purified human von Willebrand factor …; test: cell-based or functional assay; remark: listed apart in the source
[12] = biological target: T1, purified human von Willebrand factor …; test: cell-based or functional assay; remark: listed apart in the source
[13] = biological target: T1, purified human von Willebrand factor …; test: cell-based or functional assay; remark: listed apart in the source

Dissociation half-life [1]: 44 min | Kd [2]: 0.39 nM | Ki [3]: 0.275 nM | Kd [4]: 0.316 nM | Ki [5]: 0.28 nM | IC50 (read off the curve) [6]: 0.6 nM
Molecule: NMC-4-human Fc chimera (NMC-4 variable regions on human IgG1(dm) and human kappa constant regions) (antibody)

Ki [7]: 0.6 nM
Molecule: NMC-4 monoclonal antibody (murine anti-vWF antibody, IgG1κ)

EC50, ristocetin-induced platelet agglutination assay [8]: 0.27 nM | EC50 (read off the curve) [9]: 0.2 nM
Molecule: AJW200 reference antibody (anti-vWF A1 domain, cloned with human IgG1(dm) constant region)

fold lower activity compared to chimera, platelet agglutination assay [10]: 10 fold | EC50 (nM), platelet agglutination assay [11]: 1.63 nM
B1: humanized NMC-4 variant H14, L11 (IgG1) (antibody, V domains shown)
VH: QVQLQESGPGLVKPSETLSLTCTVSGGSISDYGWDWIRQPPGKGLEWIGMIWGDGSTDYNPSLKSRVTISVDTSKNQFSLKLSSVTAADTAVYYCARDPADYGNYDYALDYWGQGTLVTVSS
VL: DIQMTQSPSSLSASVGDRVTITCQASQDISNYLNWYQQKPGKAPKLLIYDASNLETGVPSRFSGSGSGTDFTLTFSSLQPEDFATYYCQQYEKLPWTFGQGTKVEIK

fold change of EC50 against the other variants [10]: 1.5 fold | EC50 [12]: 0.28 nM
B2: humanized NMC-4 variant H8, L5 (IgG1) (antibody, V domains shown)
VH: QVQLQESGPGLVKPSETLSLTCTVSGFSLTDYGVDWIRQPPGKGLEWIGMIWGDGSTDYNSALKSRLTISKDNSKNQFSLKLSSVTAADTAVYYCVRDPADYGNYDYALDYWGQGTSLTVSS
VL: DIQMTQSPSSLSASVGDRVTITCSASQDINKYLNWYQQKPGKAVKLLIFYTSSLHSGVPSRFSGSGSGTDYTLTISSLQPEDIATYYCQQYEKLPWTFGQGTKVEIK

EC50 (nM), platelet agglutination assay [11]: 0.2 nM
B3: humanized NMC-4 variant H13, L10 (IgG1) (antibody, V domains shown)
VH: B1 VH with P61S, S62A
VL: B1 VL with D50Y, A51T, N53S, E55H, T56S, F75I

Platelet agglutination EC50, single experiment [13]: 2.3 nM and 2 nM | Platelet agglutination EC50 mean value (from 2 independent expts.) [13]: 2.15 nM
B4: humanized NMC-4 variant H14-L10, IgG4 (antibody, V domains shown)
VH: B1 VH
VL: B1 VL with D50Y, A51T, N53S, E55H, T56S, F75I

EC50 [12]: 0.12 nM | EC50 (nM), platelet agglutination assay [11]: 0.12 nM | Platelet agglutination EC50, single experiment [13]: 1.3 nM | Platelet agglutination EC50 mean value (from 2 independent expts.) [13]: 1.3 nM
B5: humanized NMC-4 variant H9, L9 (CDR-grafted), IgG1 (antibody, V domains shown)
VH: B2 VH with L67V, K71V, N73T, V96A, S117L, L118V
VL: B2 VL with V44P, F49Y, Y71F, I83F

EC50 [12]: 0.08 nM
B6: humanized NMC-4 variant H9, L8 (IgG1) (antibody, V domains shown)
VH: B2 VH with L67V, K71V, N73T, V96A, S117L, L118V
VL: B2 VL with V44P, F49Y, Y71F

EC50 (nM), platelet agglutination assay [11]: 0.22 nM | Platelet agglutination EC50, single experiment [13]: 1.1 nM and 1.3 nM | Platelet agglutination EC50 mean value (from 2 independent expts.) [13]: 1.2 nM
B7: humanized NMC-4 variant H14, L10, IgG1 (antibody, V domains shown)
VH: B1 VH
VL: B1 VL with D50Y, A51T, N53S, E55H, T56S, F75I

EC50 [12]: 0.11 nM
B8: humanized NMC-4 variant H9, L4 (IgG1) (antibody, V domains shown)
VH: B2 VH with L67V, K71V, N73T, V96A, S117L, L118V
VL: B2 VL with V44P

Platelet agglutination EC50, single experiment [13]: 1.3 nM and 1.5 nM | Platelet agglutination EC50 mean value (from 2 independent expts.) [13]: 1.4 nM
B9: humanized NMC-4 variant H9L9 IgG4 (antibody, V domains shown)
VH: B2 VH with L67V, K71V, N73T, V96A, S117L, L118V
VL: B2 VL with V44P, F49Y, Y71F, I83F

EC50 [12]: 0.13 nM
B10: humanized NMC-4 variant H9, L6 (IgG1) (antibody, V domains shown)
VH: B2 VH with L67V, K71V, N73T, V96A, S117L, L118V
VL: B2 VL with F49Y

EC50 [12]: 0.14 nM
B11: humanized NMC-4 variant H2, L6 (IgG1) (antibody, V domains shown)
VH: B2 VH with F78V
VL: B2 VL with F49Y

EC50 [12]: 0.15 nM
B12: humanized NMC-4 variant H4, L5 (IgG1) (antibody, V domains shown)
VH: B2 VH with F78V, V96A
VL: B2 VL

EC50 [12]: 0.18 nM
B13: humanized NMC-4 variant H5, L5 (IgG1) (antibody, V domains shown)
VH: B2 VH with L67V, F78V
VL: B2 VL

EC50 (nM), platelet agglutination assay [11]: 0.16 nM
B14: humanized NMC-4 variant H13, L9 (IgG1) (antibody, V domains shown)
VH: B1 VH with P61S, S62A
VL: B2 VL with V44P, F49Y, Y71F, I83F

EC50 [12]: 0.16 nM
B15: humanized NMC-4 variant H7, L5 (IgG1) (antibody, V domains shown)
VH: B2 VH with N73T, F78V
VL: B2 VL

EC50 [12]: 0.13 nM
B16: humanized NMC-4 variant H2, L5 (IgG1) (antibody, V domains shown)
VH: B2 VH with F78V
VL: B2 VL

EC50 [12]: 0.14 nM
B17: humanized NMC-4 variant H2, L4 (IgG1) (antibody, V domains shown)
VH: B2 VH with F78V
VL: B2 VL with V44P

EC50 [12]: 0.14 nM
B18: humanized NMC-4 variant H9, L5 (IgG1) (antibody, V domains shown)
VH: B2 VH with L67V, K71V, N73T, V96A, S117L, L118V
VL: B2 VL

EC50 [12]: 0.15 nM
B19: humanized NMC-4 variant H2, L7 (IgG1) (antibody, V domains shown)
VH: B2 VH with F78V
VL: B2 VL with Y71F

EC50 [12]: 0.11 nM
B20: humanized NMC-4 variant H9, L7 (IgG1) (antibody, V domains shown)
VH: B2 VH with L67V, K71V, N73T, V96A, S117L, L118V
VL: B2 VL with Y71F

EC50 (nM), platelet agglutination assay [11]: 0.13 nM
B21: humanized NMC-4 variant H14, L9 (IgG1) (antibody, V domains shown)
VH: B1 VH
VL: B2 VL with V44P, F49Y, Y71F, I83F

EC50 (nM), platelet agglutination assay [11]: 0.29 nM
B22: humanized NMC-4 variant H12, L9 (IgG1) (antibody, V domains shown)
VH: B1 VH with W34V, P61S, S62A
VL: B2 VL with V44P, F49Y, Y71F, I83F

EC50 [12]: 0.18 nM
B23: humanized NMC-4 variant H6, L5 (IgG1) (antibody, V domains shown)
VH: B2 VH with K71V, F78V
VL: B2 VL

EC50, ristocetin-induced platelet agglutination assay [10]: 0.17 nM
B24: NMC-4 monoclonal antibody (murine anti-vWF antibody, IgG1κ) (antibody, V domains shown)
VH: QVQLKESGPGLVAPSQSLSITCTVSGFSLTDYGVDWVRQPPGKGLEWLGMIWGDGSTDYNSALKSRLSITKDNSKSQVFLKMNSLQTDDTARYYCVRDPADYGNYDYALDYWGQGTSVTVSS
VL: DIQMTQSPSSLSASLGDRVTISCSASQDINKYLNWYQQKPDGAVKLLIFYTSSLHSGVPSRFSGSGSGTDYSLTISNLEPEDIATYYCQQYEKLPWTFGGGTKLEVKR
